Laboratory results from US20120058906A1 (published 2012).
Each block holds one binder with its values, some of them ahead of it.

Assays:
[1] = biological target: T1, rHuman HGF R/c-MET/Fc Chimera, CF (R&D Systems Cat#358-MT/CF) (human, UniProt P08581 25-932); assay: ECL (MSD multi-spot), antigen on plate, Fab 2 nM
T1 construct: Bought Fc chimera; also called HGF R/Fc; not shown: Fc of the bought chimera

[2] = biological target: T2, Recombinant Human DLL4 (R&D Systems Cat#1506-D4/CF) (human, UniProt Q9NR61 27-524); assay: ECL (MSD multi-spot), antigen on plate, Fab 2 nM
T2 construct: Bought recombinant protein; also called delta-like protein 4

[3] = biological target: T3, rHuman IGF-1 sR (insulin-like growth factor-1 soluble receptor), CF (R&D Systems Cat#391-GR) (human, UniProt P08069 31-932); assay: ECL (MSD multi-spot), antigen on plate, Fab 2 nM
T3 construct: Bought soluble receptor; also called IGF-R1

[4] = biological target: T4, rHuman ErbB2/Fc Chimera, CF (R&D Systems Cat#1129-ER) (human, UniProt P04626 23-652); assay: ECL (MSD multi-spot), antigen on plate, Fab 2 nM
T4 construct: Bought Fc chimera; also called HER2/neu; not shown: Fc of the bought chimera

[5] = biological target: T5, rHuman CD44/Fc Chimera, CF (R&D Systems Cat#3660-CD) (human, UniProt P16070 21-220); assay: ECL (MSD multi-spot), antigen spotted on plate; Fab 88.1 nM; blank spot 301
T5 construct: Bought reagent; Fc part of the bought chimera not given

[6] = biological target: T6, rHuman Erythropoietin R/Fc Chimera, CF (R&D Systems Cat#963-ER) (human, UniProt P19235 25-250); assay: as above
T6 construct: Bought reagent; also called EPO R/Fc; Epo R; Fc part of the bought chimera not given
T6 sequence: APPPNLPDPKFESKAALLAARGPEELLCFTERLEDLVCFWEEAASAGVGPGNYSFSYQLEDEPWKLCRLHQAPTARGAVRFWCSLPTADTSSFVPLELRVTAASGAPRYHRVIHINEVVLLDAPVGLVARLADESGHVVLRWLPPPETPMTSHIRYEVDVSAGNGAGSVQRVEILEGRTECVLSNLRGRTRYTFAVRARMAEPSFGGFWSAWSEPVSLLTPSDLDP

[7] = biological target: T7, rHuman IGF-1 sR (IGF-1 sR), CF (R&D Systems Cat#391-GR) (human, UniProt P08069 31-932); assay: as above
T7 construct: Bought soluble receptor; also called insulin-like growth factor-1 soluble receptor; IGF-R1

[8] = biological target: T8, Recombinant Human DLL4 (R&D Systems Cat#1506-D4/CF) (human, UniProt Q9NR61 27-524); assay: as above
T8 construct: Bought reagent; also called delta-like protein 4

[9] = biological target: T9, rHuman EGF R/Fc Chimera, CF (R&D Systems Cat#344-ER) (human, UniProt P00533 25-645); assay: as above
T9 construct: Bought reagent; also called epidermal growth factor receptor; Fc part of the bought chimera not given

[10] = biological target: T10, rHuman HGF R/c-MET/Fc Chimera, CF (R&D Systems Cat#358-MT/CF) (human, UniProt P08581 25-932); assay: as above
T10 construct: Bought reagent; also called HGF R/Fc; hepatocyte growth factor receptor; Fc part of the bought chimera not given

[11] = biological target: T11, rHuman ErbB2/Fc Chimera, CF (R&D Systems Cat#1129-ER) (human, UniProt P04626 23-652); assay: as above
T11 construct: Bought reagent; also called HER2/neu; human epidermal growth factor 2 receptor; Fc part of the bought chimera not given

[12] = biological target: T12, rHuman Notch-1/Fc Chimera, CF (R&D Systems Cat#3647-TK) (human, UniProt P46531 19-526); assay: as above
T12 construct: Bought reagent; Fc part of the bought chimera not given

[13] = biological target: T13, rHuman P-Cadherin/Fc Chimera, CF (R&D Systems Cat#861-PC) (human, UniProt P22223 108-654); assay: as above
T13 construct: Bought reagent; also called CDH3; Fc part of the bought chimera not given
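Note: blank spot per well as comparator with Hit at signal to blank ratio of 4 or more.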

- ECL signal [1]: 207 ECL signal
- ECL signal [2]: 11400 ECL signal
- ECL signal [3]: 296 ECL signal
- ECL signal [4]: 138 ECL signal
B1: Fab VH1-46_IGHD6-6*01_IGHJ1*01_S102A_S103P_S104F & L6_IGKJ1*01_S30N (Fab, V domains shown)
VH: QVQLVQSGAEVKKPGASVKVSCKASGYTFTSYYMHWVRQAPGQGLEWMGIINPSGGSTSYAQKFQGRVTMTRDTSTSTVYMELSSLRSEDTAVYYCAREEYAPFSAEYFQHWGQGTLVTVSS
VL: EIVLTQSPATLSLSPGERATLSCRASQSVNSYLAWYQQKPGQAPRLLIYDASNRATGIPARFSGSGSGTDFTLTISSLEPEDFAVYYCQQRSNWPPWTFGQGTKVEIKR
notes: Fab

- ECL signal [5]: 340
- ECL signal [6]: 3370
- ECL signal [7]: 273
- ECL signal [8]: 434
- ECL signal [9]: 376
- ECL signal [10]: 392
- ECL signal [11]: 200
- ECL signal [12]: 440
- ECL signal [13]: 278
B2: Fab VH1-46_IGHD3-10*01_IGHJ4*01 & B3_IGKJ1*01 (Fab, V domains shown)
VH: QVQLVQSGAEVKKPGASVKVSCKASGYTFTSYYMHWVRQAPGQGLEWMGIINPSGGSTSYAQKFQGRVTMTRDTSTSTVYMELSSLRSEDTAVYYCAREYYYGSGSYYNDYFDYWGQGTLVTVSS
VL: not shown
notes: also called IGHV1-46*01
